The source of these data is patent US20180044653A1, “Mutant Yeast Strain Capable of Degrading Cellobiose” (Institut National de la Recherche Agronomique, priority 2015, published 2018).

The term Km denotes the concentration of substrate that gives half-maximal velocity. As a reminder, the kcat is the number of substrate molecules converted per active site and unit of time at saturation. As usually defined, the kcat/Km is the second-order rate constant that governs catalysis at low substrate concentration.

Substrate in data set [1]: OC[C@H]1O[C@@H](OC[C@H]2OC(O)[C@H](O)[C@@H](O)[C@@H]2O)[C@H](O)[C@@H](O)[C@@H]1O
Briefly: purified protein, by the assay type. Conditions: other: apparent; 0.13 nM Bgl2; released glucose; mean of three experiments, SD below 10%.

Substrate in data set [2]: OC[C@H]1O[C@@H](O[C@H]2C(O)O[C@H](CO)[C@@H](O)[C@@H]2O)[C@H](O)[C@@H](O)[C@@H]1O
As to the kind of experiment: purified protein, by the assay type. To be noted: other: apparent; 0.13 nM Bgl2; released glucose; mean of three experiments, SD below 10%.

Substrate in data set [3]: OC[C@H]1O[C@@H](O[C@H]2[C@H](O)[C@@H](CO)OC(O)[C@@H]2O)[C@H](O)[C@@H](O)[C@@H]1O
Briefly: purified protein, by the assay type. To be noted: other: apparent; 0.13 nM Bgl2; released glucose; mean of three experiments, SD below 10%.

Substrate in data set [4]: OC[C@H]1O[C@@H](O[C@H]2[C@H](O)[C@@H](O)[C@H](O[C@H]3[C@H](O)[C@@H](O)C(O)O[C@@H]3CO)O[C@@H]2CO)[C@H](O)[C@@H](O)[C@@H]1O
As to the kind of experiment: purified protein, by the assay type. Conditions: other: apparent; 0.13 nM Bgl2; released glucose; mean of three experiments, SD below 10%.

Substrate in data set [5]: OC[C@H]1O[C@@H](O[C@H]2[C@H](O)[C@@H](O)[C@H](O[C@H]3[C@H](O)[C@@H](O)[C@H](O[C@H]4[C@H](O)[C@@H](O)C(O)O[C@@H]4CO)O[C@@H]3CO)O[C@@H]2CO)[C@H](O)[C@@H](O)[C@@H]1O
As to the kind of experiment: purified protein, by the assay type. Conditions: other: apparent; 0.13 nM Bgl2; released glucose; mean of three experiments, SD below 10%.

Substrate in data set [6]: OC[C@H]1O[C@@H](O[C@H]2[C@H](O)[C@@H](O)[C@H](O[C@H]3[C@H](O)[C@@H](O)[C@H](O[C@H]4[C@H](O)[C@@H](O)[C@H](O[C@H]5[C@H](O)[C@@H](O)[C@H](O[C@H]6[C@H](O)[C@@H](O)C(O)O[C@@H]6CO)O[C@@H]5CO)O[C@@H]4CO)O[C@@H]3CO)O[C@@H]2CO)[C@H](O)[C@@H](O)[C@@H]1O
As to the kind of experiment: purified protein, by the assay type. Conditions: other: apparent; 0.13 nM Bgl2; released glucose; mean of three experiments, SD below 10%.

Substrate in data set [7]: CCCCCCCCO[C@@H]1O[C@H](CO)[C@@H](O)[C@H](O)[C@H]1O
As to the kind of experiment: Enzyme kinetics on glycoside substrates, released glucose, Michaelis-Menten (Bgl2). To be noted: other: apparent, 0.13 nM Bgl2, mean of three experiments, SD below 10%. The data set is classed as biochemical, Yarrowia lipolytica.
From the text: (§2) When using aryl-substrates, the standard assay method was employed, simply replacing pNPGlc by another substrate as appropriate. For oligosaccharides, the release of glucose was quantified using an enzyme kit (D-Fructose/D-Glucose Assay Kit, liquid stable, Megazyme). […] Initial rates were fitted to the Michaelis-Menten kinetic equation using a nonlinear regression (SigmaPlot 10) to extract the apparent KM and kcat (Segel, 1993).

Substrate in data set [8]: OC[C@H]1O[C@@H](O[C@H]2[C@H](O)[C@@H](O)C(O)O[C@@H]2CO)[C@H](O)[C@@H](O)[C@@H]1O
Described as above. The data set is classed as biochemical, Yarrowia lipolytica. To be noted: other: apparent, 0.13 nM Bgl2, mean of three experiments, SD below 10%.
From the text: as §2

Substrate in data set [9]: OC[C@H]1O[C@@H](O[C@H]2[C@H](O)[C@@H](O)[C@H](O[C@H]3[C@H](O)[C@@H](O)[C@H](O[C@H]4[C@H](O)[C@@H](O)[C@H](O[C@H]5[C@H](O)[C@@H](O)C(O)O[C@@H]5CO)O[C@@H]4CO)O[C@@H]3CO)O[C@@H]2CO)[C@H](O)[C@@H](O)[C@@H]1O
The data set is described as above. In kind it is biochemical, Yarrowia lipolytica. To be noted: other: apparent, 0.13 nM Bgl2, mean of three experiments, SD below 10%.
From the text: as §2

A short description of data set [10]: β-Glucosidase activity, release of pNP from pNPGlc. The data set is classed as biochemical. The protocol:
β-Glucosidase activity was measured by quantifying the release of pNP (p-nitroplienol) from pNPGlc as described previously (Guo et al., 2011). One unit of pNPGlcase activity was defined as the amount of enzyme required to release 1 μmol pNP per min. Cellobiose phosphorylase activity was assayed by measuring the formation of Glc-1P from cellobiose as described previously (Reichenbecher et al., 1997). One unit of activity (U) was defined as the amount of enzyme required to release 1 μmol Glc-1P per min. All protein concentrations were measured using the Bradford method and bovine serum albumin as a standard (Bradford, 1976).

Data set [11] in a line: Subcellular fractionation and enzyme localization, activity assayed with pNPGlc. The data set is classed as biochemical, Y. lipolytica. The protocol: Fractionation of yeast cells was carried out as described by Cummings and Fowler (1996), with slight modifications. Briefly, yeasts were cultivated until a cellular density of 6×10^7 cells/mL was reached. Then, to quantify total β-glucosidase activity, a 50 mL sample was taken and subjected to centrifugation at 8,000×g for 5 min at 4° C. thus isolating a cell pellet and supernatant. The cell pellet was disrupted in Tris-HCl buffer (50 mM, pH 7.4, 3 mM EDTA and 0.5 mM PMSF) using a MP FastPrep-24 Instrument (MP Biomedicals Inc.). β-Glucosidase activity in both the cell lysate and the supernatant was determined as described earlier in order to estimate total β-glucosidase activity. Using a second 50 mL yeast culture, a cell pellet containing approximately 2×10^8 cells/mL was obtained by centrifugation and then treated with zymolyase 100T at 10 mg/mL (Seikagaku corp roger) in 15 mL of sorbitol buffer (1 M sorbitol, 50 mM Tris-HCl, pH 7.4, 2 mM dithiothreitol, 10 mM MgCl2, 20 mM-sodium azide, 0.5 mM PMSF) at 30° C. with gentle shaking. Protoplast formation was monitored using a microscope until ≧99% of the cells was lysed when. SDS was added (1% SDS w/v). The solid protoplast fraction was then separated from the supernatant by centrifugation (1000 rpm for 5 min at 4° C.) and the latter was designated as the periplasmic fraction. The protoplasts were re-suspended in Tris-HCl buffer (50 mM Tris-HCl, pH 7.4) and disrupted by vortex in the presence of glass beads (0.4-0.45 mm). The homogenate was centrifuged (20,000×g for 2 h at 4° C.) and the supernatant and solid fractions were designated as the cytoplasmic and membrane fraction respectively. Prior to enzyme assays, the membrane fraction was suspended in citrate buffer.
Activity was assayed with pNPGlc.

A short description of data set [12]: Specific activity on cellobiose. The data set is classed as biochemical. The text has this: (§1) When using aryl-substrates, the standard assay method was employed, simply replacing pNPGlc by another substrate as appropriate. For oligosaccharides, the release of glucose was quantified using an enzyme kit (D-Fructose/D-Glucose Assay Kit, liquid stable, Megazyme).

Data set [13] can be described thus: Michaelis-Menten kinetics (glucose release). The data set is classed as biochemical. To be noted: cellobiose.
From the text: as §1

B1: Yarrowia lipolytica β-glucosidase Bgl2 (YALI_BGL2, YALI0B14289g, SEQ ID NO: 6; mature SEQ ID NO: 2), native (Yarrowia lipolytica CLIB122) (protein)
chain: DPFSDKDAYKHSPPYYPAPEIGRVPTDLRWRAALKVAQGMVANMTLLEKVNITTGTGWEMGPCVGNTGTVERLGIKSLCLQDGPLGIRFADLITTFPAGITIASTFSRQLVRERGAAMGRENRRKGVDITLSPVVGPLGRHANGGRIWEGFSADPYLAGKLAAEAVTGIQGQNVMAVVKHMVGNEQEHFRQLGEWQGFGFKDLKQPLSSNIDDRTLNEAYLWPFADAVRANVGSVMCSYQQINGSQGCQNAHILNGKLKEEMGFQGFVMSDWLAQRSGVASVLAGLDMSMPGDGLVWADGVPLMGYELTRSVLNGTIDESRVDDMVTRILTPILYLSITPTDPNFSSWTNDTTSYKYYGAKAGGNVTVNRHIDVRDQYTTKAALDGANAALVLLKNEKKTLPLNPTNIGNLNIFGIGSKTGPLGAVCGENMQCSDGALIEGWGSGSVYPTDYQSPYDAIKERASKDNITIGGTTQSWGNLSNVEILSAAADASVVFVLSDSGESTGIVDGNIGDRNNLTLWHNGDEVVKAVASKNPNTIVVVTTVGPVNLEKWIDNPNVTAVLLTGPAGDFGGRAAASILFGDIAPSGKLPFTIAKNDTDYIPLTTKIPEDGLPQDYFTEGTLLDYKRFDENQVTPRFEFGYGLSYSNITVENLEARYAFPSIPEFLPTPFAPSNPNKPKNAFTPHANESVFPSDIDPLNKYVYPYLNDTSEIFSNETHYPYPEGYSSEQSNSTNINGGAVGGNPALWLSAVYIVHSVSNYGPYDTGVVTQMYIAFPQDNDDLKTAPRQLRGFERSELKVGERQGILYDVQWRDLAVWDVKLQSWRVQRGEYKVYVGHSSRDFVLTTSFTLK
For the molecule B1, the Km in data set [1] was 1840 µM; in [2], 2400 µM; in [3], 890 µM; in data set [4], 990 µM; in [5] it was 1860 µM; in [6] it was 2370 µM. Besides, the figures for the Km in data set [7], in data set [8] and in data set [9] were 1300 µM, 790 µM and 2240 µM, respectively. Further, the kcat in data set [1] is 186.5 s⁻¹; in [2] it was 41.2 s⁻¹; in data set [3], 211.1 s⁻¹; in data set [4] it was 9.5 s⁻¹; in [5] it was 20.6 s⁻¹; in data set [6] it was 30.5 s⁻¹. The kcat in [7] was determined as 111.1 s⁻¹; in data set [8] it was 5.1 s⁻¹; in data set [9] it was 27.5 s⁻¹. Further, the kcat/Km in data set [1] worked out at 101000 M⁻¹ s⁻¹; in [2] it was 17200 M⁻¹ s⁻¹; in [3] it was 237000 M⁻¹ s⁻¹; in data set [4], 9600 M⁻¹ s⁻¹; in data set [5], 11000 M⁻¹ s⁻¹; in data set [6], 12900 M⁻¹ s⁻¹. Besides, the values for the kcat/Km in data set [7], in data set [8] and in data set [9] were 85200 M⁻¹ s⁻¹, 6500 M⁻¹ s⁻¹ and 12300 M⁻¹ s⁻¹, respectively.

B2: Bgl1: β-glucosidase of Y. lipolytica encoded by BGL1 (YALI0F16027g), SEQ ID NO: 4, mainly periplasmic (protein, listed as Yarrowia lipolytica)
chain: MIFSLQLLLTTALAASSPDWYPTPEIGSITSDWADALGESMDILAQLTLPEKVNITTGTGWRGGQCVGNTGAVPRLGIKGLCLQDGPLGVRFADFVNVFPCQNAMAATFDRILVHQRGTAIGRQSRLKGVDVHLGPVVGPLGRHATGGRNWEGFSPDPYLSGKLAFEAILGVQEEGVLATIKHFIGNEQEHYRRAEEWRDGFGFKDLKDAVSSNIEDRALHELYMWPFADAVRANVGSVMCSYNYVNGTQACQNSDLLNGKLKSELGFQGFVMSDWFAQGSGVSNALAGMDMSMPGNDVDELETVFWGEQLTRMVANGTLPEARLDDMVLRILTPLIYFGIDDRTPNFSSFVDTTVGSPHPAAKHSKKVKDVITNYHLDVRDQFAANVALDSARGAVVLLFNDGILPLKNISAIGVFGVGSRLGPNGAVCGENMQCSDGALIEGWGSGTAYPTEYESPYEALHKKASLLEVSVTGTTESWDMRLPLELAGDTDVNIVYVLANSGESTANVDKNLGDRRNVSLWHNGDELINTVASQGQTVVVVTTVGQVDMTAWLNHPNISAVLLTAPAGDYGGKAIADVLFGEVNPSGKLPYTIAANTSDYIPIVTKIPRDGAPQSDFVEGIYLDYKWYDKFERTPLYEFGYGLSYTTYSFSNLHLDVKEISEFLPPRPVPVQVTKPKMTNIDIEDLYVPNDFKMIDGLVYPWILNASAPLADSQTQFPFANGAGHVSDASGGVGGHPWLWSNAVTVTHNTTNCGDVAGRVVSQLYVAFPETLIDSPPVQLRGFDKSKLLNPGESQMTEYNLNWRDLAIWDVELQSWRVQRGEYSVYIGHSSREFELCETFTL
B2: the “fold more active on pNPGlc than Bgl2” value in data set [10] came out at 5 fold. For the same molecule, the “activity on pNPGlc of purified enzyme” value in data set [10] (preliminary characterization, pNPGlc as substrate) is listed as 102.8 U/mg. The “Relative enzyme activity, Cytoplasm” value in data set [11] (fraction: Cytoplasm) is 30.0 ± 0.5%. Also, the “Relative enzyme activity, Growth medium” value in data set [11] (fraction: Growth medium) is on record as 2.3 ± 0.4%. For the same molecule, the “Relative enzyme activity, Membrane” value in data set [11] (fraction: Membrane) is given as 8.1 ± 0.7%. The “Relative enzyme activity, Periplasm” value in data set [11] (fraction: Periplasm) is reported as 60.7 ± 1.0%. The “Relative enzyme activity, Total” value in data set [11] (fraction: Total) is recorded as 100%. In [12], the “specific activity on cellobiose” value is reported as 108 units/mg protein. Further, the “KM fold lower than those of β-glucosidases from S. fibuligera and A. niger” value in data set [13] is listed as “approximately 10 fold”.
